Target: PTH receptor ("PTHIR")
Test: cell-based or functional assay

B1: PTH(1-84) (ligand)
chain: SVSEIQLMHNLGKHLNSMERVEWLRKKLQDVHNFVALGAPLAPRDAGSQRPRKKEDNVLVESHEKSLGEADKADVNVLTKAKSQ
- cAMP potency (EC50): 0.24 nM

Reference: patent US20250257112A1 (SHIRE NPS PHARMACEUTICALS, published 2025)
